The values below are quoted from earlier work in patent US20040101532A1, “Methods and compositions for heat shock protein mediated immunotherapy of melanoma” (priority 2004, published 2004).

One data set deals with tyrosinase. The conditions noted are these: vaccinated patients, after immunization with the tyrosinase peptide antigen.
The conditions of data set [1]: vaccinated patients.
For data set [2], the system named is CD8+ cytotoxic T lymphocytes. Particulars: HLA-A*0201-restricted TRP-2 peptides.
In a further data set the test system is gp100. The conditions noted are these: detected without extensive preliminary in vitro sensitization.

As for YMDGTMSQV [tyrosinase:368-376 (370D)], the “increase in T cell responsiveness against tyrosinase by ELISPOT” value in the data set with tyrosinase is reported as “Two of nine vaccinated patients showed an increase in T cell responsiveness”. Moreover, the “tolerability in clinical trial” value in data set [1] is listed as “well tolerated with little toxicity”. In the case of “TLDSQVMSL [TRP-2(360-368), HLA-A*0201-restricted TRP-2 peptide]”, the “induction of specific CD8+ cytotoxic T lymphocytes” value in data set [2] is on record as “induced specific CD8+ cytotoxic T lymphocytes”. Regarding “VMGTLVALV [TRP-2(476-484), HLA-A*0201-restricted TRP-2 peptide]”, the “induction of specific CD8+ cytotoxic T lymphocytes” value in data set [2] was “induced specific CD8+ cytotoxic T lymphocytes”. In the case of “IMDQVPFSV [gp100:209-217 peptide modified at second position, methionine for threonine]”, the “anti-gp100 T cell reactivity induced by immunization” value with gp100 was “induce anti-gp 100 T cell reactivity”.
